Measured values from PMC9482650, “Quantitative fragmentomics allow affinity mapping of interactomes” (Nature Communications, 2022).

T1: ARHGEF11, O15085
T1 sequence (O15085 42-136, limits assumed, looked up): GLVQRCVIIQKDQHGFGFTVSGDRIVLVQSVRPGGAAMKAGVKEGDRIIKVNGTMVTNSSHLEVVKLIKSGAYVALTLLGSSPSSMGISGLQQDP

T2: CARD11, Q9BXL7
T2 sequence (Q9BXL7 662-765, limits assumed, looked up): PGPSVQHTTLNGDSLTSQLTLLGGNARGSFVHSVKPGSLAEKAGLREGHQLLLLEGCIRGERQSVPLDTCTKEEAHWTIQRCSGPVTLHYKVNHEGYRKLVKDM

T3: DFNB31_1, Q9P202
T3 sequence (Q9P202 135-233, limits assumed, looked up): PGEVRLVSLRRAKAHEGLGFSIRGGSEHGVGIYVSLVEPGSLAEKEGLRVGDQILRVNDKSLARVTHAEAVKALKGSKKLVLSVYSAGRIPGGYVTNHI

T4: DLG3_2, Q92796
T4 sequence (Q92796 221-321, limits assumed, looked up): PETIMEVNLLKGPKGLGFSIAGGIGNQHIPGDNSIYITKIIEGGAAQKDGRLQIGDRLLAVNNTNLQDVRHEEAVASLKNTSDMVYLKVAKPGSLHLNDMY

T5: DLG3_3, Q92796
T5 sequence (Q92796 374-475, limits assumed, looked up): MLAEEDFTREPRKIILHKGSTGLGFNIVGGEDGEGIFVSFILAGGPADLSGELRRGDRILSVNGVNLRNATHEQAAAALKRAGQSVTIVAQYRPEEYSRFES

T6: GRIP1_3, Q9Y3R0
T6 sequence (Q9Y3R0 247-346, limits assumed, looked up): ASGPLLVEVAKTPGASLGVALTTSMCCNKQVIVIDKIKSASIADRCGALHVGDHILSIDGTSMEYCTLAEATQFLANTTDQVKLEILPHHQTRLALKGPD

T7: LRRC7, Q96NW7
T7 sequence (Q96NW7 1440-1537, limits assumed, looked up): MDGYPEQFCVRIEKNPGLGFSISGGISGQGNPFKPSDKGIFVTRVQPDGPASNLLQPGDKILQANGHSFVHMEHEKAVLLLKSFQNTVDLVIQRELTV

T8: MPDZ_5, O75970
T8 sequence (O75970 695-796, limits assumed, looked up): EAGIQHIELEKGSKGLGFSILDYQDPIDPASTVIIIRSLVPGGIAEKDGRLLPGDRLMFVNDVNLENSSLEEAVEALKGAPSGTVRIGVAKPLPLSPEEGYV

T9: MPP7, Q5T2T1
T9 sequence (Q5T2T1 134-230, limits assumed, looked up): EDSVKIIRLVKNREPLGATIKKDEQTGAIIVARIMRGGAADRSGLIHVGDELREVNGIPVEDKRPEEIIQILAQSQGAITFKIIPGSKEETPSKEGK

T10: RADIL, Q96JH8
T10 sequence (Q96JH8 971-1071, limits assumed, looked up): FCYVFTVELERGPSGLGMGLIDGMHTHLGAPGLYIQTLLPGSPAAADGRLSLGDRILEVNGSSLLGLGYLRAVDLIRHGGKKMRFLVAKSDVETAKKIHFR

T11: RHPN1, Q8TCX5
T11 sequence (Q8TCX5 508-602, limits assumed, looked up): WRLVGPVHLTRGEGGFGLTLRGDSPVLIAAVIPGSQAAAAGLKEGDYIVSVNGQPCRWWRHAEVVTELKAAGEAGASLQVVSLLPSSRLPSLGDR

T12: SIPA1L2, Q9P2F8
T12 sequence (Q9P2F8 945-1036, limits assumed, looked up): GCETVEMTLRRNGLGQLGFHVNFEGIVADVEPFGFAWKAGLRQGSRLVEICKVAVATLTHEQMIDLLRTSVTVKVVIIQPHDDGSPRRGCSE

T13: SYNJ2BP, P57105
T13 sequence (P57105 8-110, limits assumed, looked up): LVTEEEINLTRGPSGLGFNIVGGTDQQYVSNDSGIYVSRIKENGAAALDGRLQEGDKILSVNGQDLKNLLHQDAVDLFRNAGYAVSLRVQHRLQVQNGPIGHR


What was measured:
Experiment in all cases: holdup assay
Design in all cases: key: below the threshold = too weak to quantify, mostly under pKd 3.1 to 4
Settings in all cases: plain residues with an end cap or a label only (N-terminal biotin on a linker: ado-ado)
[1] = target: T1, ARHGEF11, O15085
[2] = target: ARHGEF12, Q9NZN5-2
[3] = target: T2, CARD11, Q9BXL7
[4] = target: T3, DFNB31_1, Q9P202
[5] = target: T4, DLG3_2, Q92796
[6] = target: T5, DLG3_3, Q92796
[7] = target: FRMPD2_3, Q68DX3
[8] = target: T6, GRIP1_3, Q9Y3R0
[9] = target: GRIP2_5, Q9C0E4
[10] = target: GRIP2_6, Q9C0E4
[11] = target: HTRA1, Q92743
[12] = target: Inadl_1, Q8NI35
[13] = target: Inadl_6, Q8NI35
[14] = target: T7, LRRC7, Q96NW7
[15] = target: MAGI2_2, Q86UL8
[16] = target: T8, MPDZ_5, O75970
[17] = target: T9, MPP7, Q5T2T1
[18] = target: NHERF4_2, Q86UT5
[19] = target: T10, RADIL, Q96JH8
[20] = target: T11, RHPN1, Q8TCX5
[21] = target: T12, SIPA1L2, Q9P2F8
[22] = target: SNX27, Q96L92
[23] = target: T13, SYNJ2BP, P57105
[24] = target: TJP1_3, Q07157
Sequence of TJP1_3, Q07157 (Q07157 416-512): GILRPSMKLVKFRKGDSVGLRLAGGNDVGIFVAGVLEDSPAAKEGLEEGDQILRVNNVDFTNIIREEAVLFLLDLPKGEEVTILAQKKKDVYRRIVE

Sequence of Inadl_6, Q8NI35 (Q8NI35 1058-1167): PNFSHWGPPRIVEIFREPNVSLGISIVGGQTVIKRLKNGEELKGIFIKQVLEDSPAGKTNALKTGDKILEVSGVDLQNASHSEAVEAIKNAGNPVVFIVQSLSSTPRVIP
Sequence of GRIP2_6, Q9C0E4 (Q9C0E4 648-740): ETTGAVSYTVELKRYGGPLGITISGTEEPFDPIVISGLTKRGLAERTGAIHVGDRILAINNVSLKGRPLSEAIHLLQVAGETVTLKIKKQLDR
Sequence of HTRA1, Q92743 (Q92743 360-477): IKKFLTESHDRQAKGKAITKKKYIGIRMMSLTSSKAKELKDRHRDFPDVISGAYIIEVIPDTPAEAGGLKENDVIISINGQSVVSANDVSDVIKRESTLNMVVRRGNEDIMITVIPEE
Sequence of MAGI2_2, Q86UL8 (Q86UL8 410-522): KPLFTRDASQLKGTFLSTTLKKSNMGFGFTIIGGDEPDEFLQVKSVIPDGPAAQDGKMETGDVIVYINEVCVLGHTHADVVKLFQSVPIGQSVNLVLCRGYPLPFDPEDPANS
Sequence of ARHGEF12, Q9NZN5-2 (Q9NZN5 other isoform, or with tags, fused parts or gaps): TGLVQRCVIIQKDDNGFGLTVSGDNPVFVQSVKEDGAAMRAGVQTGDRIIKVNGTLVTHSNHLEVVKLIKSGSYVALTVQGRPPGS
Sequence of FRMPD2_3, Q68DX3 (Q68DX3 1073-1166): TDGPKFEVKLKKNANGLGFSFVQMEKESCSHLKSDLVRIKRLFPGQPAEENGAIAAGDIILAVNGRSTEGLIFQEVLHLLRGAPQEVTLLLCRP
Sequence of GRIP2_5, Q9C0E4 (Q9C0E4 544-642): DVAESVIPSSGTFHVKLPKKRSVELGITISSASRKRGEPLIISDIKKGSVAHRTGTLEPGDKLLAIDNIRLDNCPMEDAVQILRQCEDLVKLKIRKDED
Sequence of NHERF4_2, Q86UT5 (Q86UT5 220-308): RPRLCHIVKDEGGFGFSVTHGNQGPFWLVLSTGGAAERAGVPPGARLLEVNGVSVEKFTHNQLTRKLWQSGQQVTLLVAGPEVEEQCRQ
Sequence of Inadl_1, Q8NI35 (Q8NI35 113-229): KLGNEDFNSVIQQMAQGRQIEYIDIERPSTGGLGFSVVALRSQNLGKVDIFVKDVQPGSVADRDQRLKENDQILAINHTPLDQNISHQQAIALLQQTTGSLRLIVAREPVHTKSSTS

Binder | pKd [1] | pKd [2] | pKd [3] | pKd [4] | pKd [5] | pKd [6] | pKd [7] | pKd [8] | pKd [9] | pKd [10] | pKd [11] | pKd [12] | pKd [13] | pKd [14] | pKd [15] | pKd [16] | pKd [17] | pKd [18] | pKd [19] | pKd [20] | also measured
EPQYQPGENL [SRC, P12931] | below the threshold | below the threshold | below the threshold | below the threshold | below the threshold | below the threshold | below the threshold | below the threshold | below the threshold | below the threshold | below the threshold | below the threshold | below the threshold | below the threshold | below the threshold | below the threshold | below the threshold | below the threshold | below the threshold | below the threshold | pKd [21]: below the threshold; pKd [22]: 3.79; pKd [23]: below the threshold; pKd [24]: below the threshold
DGVNEKVSCV [HTR2A, P28223] | 4.18 | 4.36 | below the threshold | below the threshold | 4.82 | below the threshold | 3.53 | below the threshold | below the threshold | below the threshold | 4.95 | below the threshold | 3.57 | below the threshold | 4.15 | below the threshold | below the threshold | below the threshold | 4.53 | 4.66 | pKd [21]: below the threshold; pKd [22]: 5.15; pKd [23]: 4.3; pKd [24]: below the threshold
REEPDHSTEV [CCRL2, O00421] | 4.77 | 4.37 | below the threshold | 4.03 | 4.59 | 3.6 | below the threshold | below the threshold | below the threshold | 3.54 | 4.44 | below the threshold | below the threshold | below the threshold | below the threshold | below the threshold | below the threshold | below the threshold | 3.96 | 3.83 | pKd [21]: below the threshold; pKd [22]: 4.73; pKd [23]: 5.14; pKd [24]: 3.48
QSYPSKHDYV [CLDN18, P56856] | 3.81 | below the threshold | below the threshold | 3.49 | below the threshold | below the threshold | below the threshold | below the threshold | below the threshold | below the threshold | 4.32 | below the threshold | below the threshold | below the threshold | below the threshold | below the threshold | below the threshold | 3.59 | 4.35 | below the threshold | pKd [21]: 3.53; pKd [22]: 3.83; pKd [23]: below the threshold; pKd [24]: below the threshold
